The test system of one assay is GFP-TEAD4 condensates. The experiment in a line: siRNA screening based on TEAD4 condensate. Conditions: Figure 2B source data; siRNA against the named gene; Z score based analysis. In kind it is cell-based. The procedure:
siRNA reagents were obtained from the Dharmacon Human ON-TARGETplus siRNA Smartpool Library (Thermo) as described previously (Tang et al, [2020]). […] Lipofectamine RNAiMAX reagent (Thermo) at a volume of 0.05 μl per well was then added to the siRNA-loaded plates. Subsequently, cells expressing GFP-TEAD4 were seeded into the plate at 2000 cells per well. After subsequent transfection for 48 h, the cells were fixed with 4% PFA at room temperature for 30 min. DAPI was used to identify individual nuclei. The plates were kept at 4 °C in the dark before being analyzed using the Opera system. Twenty focus fields per well were scanned and analyzed. Scrambled siRNA was used as an internal reference on each plate.

Assay [1] has as its system GFP-TEAD4 condensates in HEK293FT cells. The experiment in a line: GFP-TEAD4 condensate imaging, condensed fraction in cells. It counts as cell-based. Conditions: Figure 2D source data, GFP-TEAD4 condensates with co-expressed cofactor, with or without 1,6-Hex, single measurement.
Another assay deals with HGC-27 cells. The experiment in a line: siRNA screening based on cell growth. On the set-up: species or system human. To be noted: Figure 2B source data; siRNA against the named gene; Z score based analysis. The procedure:
For screening based on cell growth, HGC-27 cells (2000 per well) were seeded into a 96-well plate overnight. The individual siRNAs targeting 192 BioID-identified genes were then added into each well to a final concentration of 25 nM. After subsequent incubation for 48 h, the cells were analyzed using an ATP-based CellCounting-Lite^TM 2.0 reagent (Vazyme, Nanjing, China) according to the manufacturer’s instructions. The intracellular ATP contents were measured using an EnSight™ Multimode Microplate Reader (Perkin Elmer).

For assay [2], the system named is HEK293FT cells transfected with TF library. Nature of the assay: Screening of TF condensates based on fluorescent puncta. It counts as cell-based. To be noted: Figure 1B numerical data; TF library screen, one value per transcriptional factor. The method in brief: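 HEK293FT cells were reverse-transfected with Flag- or GAL4-tagged TF plasmids (1.6 μg/ml, PEI). After 60 h, cells were cultured 12 h with or without glucose, then fixed and immunostained with anti-Flag or anti-GAL4 and Alexa 488 secondaries. Fluorescent puncta were imaged over fifty random fields per well by high-content imaging.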

B1: RFXANK (protein)
chain: MELTQPAEDLIQTQQTPASELGDPEDPGEEAADGSDTVVLSLFPCTPEPVNPEPDASVSSPQAGSSLKHSTTLTNRQRGNEVSALPATLDSLSIHQLAAQGELDQLKEHLRKGDNLVNKPDERGFTPLIWASAFGEIETVRFLLEWGADPHILAKERESALSLASTGGYTDIVGLLLERDVDINIYDWNGGTPLLYAVRGNHVKCVEALLARGADLTTEADSGYTPMDLAVALGYRKVQQVIENHILKLFQSNLVPADPE
For the molecule B1, the “Z score of condensed fraction” value in the assay with GFP-TEAD4 condensates is listed as -3.941. The Condensed fraction in assay [1] (replicate 1 of 9) is reported as 37.5428%; in assay [1] (replicate 2 of 9) it was 33.3337%; in assay [1] (replicate 3 of 9), 44.4467%; in assay [1] (replicate 4 of 9) it was 47.0652%; in assay [1] (replicate 5 of 9) it was 51.3041%; in assay [1] (replicate 6 of 9), 37.5405%. Besides, the Condensed fraction in assay [1] (replicate 7 of 9) stood at 26.519%; in assay [1] (replicate 8 of 9), 36.7045%; in assay [1] (replicate 9 of 9) it was 37.5001%. Besides, in the assay on HGC-27 cells, the “Z score of cell growth” value was determined as 3.094.

B2: TEAD4 (protein, UniProt Q15561 1-434, looked up)
Transcriptional enhancer …: MEGTAGTITSNEWSSPTSPEGSTASGGSQALDKPIDNDAEGVWSPDIEQSFQEALAIYPPCGRRKIILSDEGKMYGRNELIARYIKLRTGKTRTRKQVSSHIQVLARRKAREIQAKLKDQAAKDKALQSMAAMSSAQIISATAFHSSMALARGPGRPAVSGFWQGALPGQAGTSHDVKPFSQQTYAVQPPLPLPGFESPAGPAPSPSAPPAPPWQGRSVASSKLWMLEFSAFLEQQQDPDTYNKHLFVHIGQSSPSYSDPYLEAVDIRQIYDKFPEKKGGLKDLFERGPSNAFFLVKFWADLNTNIEDEGSSFYGVSSQYESPENMIITCSTKVCSFGKQVVEKVETEYARYENGHYSYRIHRSPLCEYMINFIHKLKHLPEKYMMNSVLENFTILQVVTNRDTQETLLCIAYVFEVSASEHGAQHHIYRLVKE
As for B2, the “Z score of condensed fraction” value stood at 1.0247 in the assay on GFP-TEAD4 condensates and 3.255 in assay [2]. Besides, the “Z score of cell growth” value in the assay with HGC-27 cells is reported as 0.6975.
